How the values were obtained:
[1] = target: Human serum albumin (HSA) (human) (UniProt P02768); assay: bridging ELISA after sample preparation, plate coated with 20 µg/mL HSA, antibody in neat human serum
[2] = target: Human serum albumin (HSA) (human) (UniProt P02768); assay: competitive indirect ELISA, antibody in buffer captured on Protein A/G plate, HRP-conjugated HSA detection
[3] = target: Human serum albumin (HSA) (human) (UniProt P02768); assay: competitive indirect ELISA, antibody in neat human serum, mixed with HRP-conjugated HSA, then Protein A/G plate
[4] = target: Human serum albumin (HSA) (human) (UniProt P02768); assay: competitive indirect ELISA, antibody in 1% pooled normal human serum preincubated with HRP-conjugated HSA, then Protein A/G plate
[5] = target: Human serum albumin (HSA) (human) (UniProt P02768); assay: bridging ELISA (HSA on plate, biotin-HSA in solution), antibody spiked in normal human serum, after Protein A/G enrichment and acid elution

For Rabbit anti-HSA antibody, ABCAM ab31657, the limit of detection [1] was 250 ng/mL, the lowest antibody concentration detected [2] was 0.48 ng/mL and the assay sensitivity [3] was 10 µg/mL. For the same substance, the detection limit [4] was 3 µg/mL and the detection limit [5] was 125 ng/mL.

Source: patent US20130203616A1
